Data on 4 molecules can be found in patent US20110311550A1 (Scripps Research, published 2011).

For assay [1], the target named is T1, vaccinia-expressed E1E2 complex, isolate HCV-1 (genotype 1a) (hepatitis C virus, isolate HCV-1, UniProt P26664 192-383; P26664 384-746). The assay can be described thus: competition ELISA on HCV-1 E1E2; competitor m21 (CBH-5). On the technique in general: ELISA stands for enzyme-linked immunosorbent assay.
In assay [2] the target is T1, vaccinia-expressed E1E2 complex, …. The assay can be described thus: competition ELISA on HCV-1 E1E2; competitor m3 (AR2A).
Assay [3] shares this target. The assay can be described thus: competition ELISA on HCV-1 E1E2; competitor m30 (7/16B).
Assay [4] addresses T2, E1E2 complex of HCV isolate H77 (genotype 1a), wild type (HCV isolate H77, UniProt P27958 192-383; P27958 384-746). The assay can be described thus: competition ELISA on H77 E1E2; competitor m41 (Fab O1).
Assay [5] deals with T2, E1E2 complex of HCV isolate H77 …. The assay can be described thus: competition ELISA on H77 E1E2; competitor m46 (Fab P4).
For assay [6], the target named is T1, vaccinia-expressed E1E2 complex, …. The assay can be described thus: competition ELISA on HCV-1 E1E2; competitor m7 (AR3D).
In assay [7] the target is T2, E1E2 complex of HCV isolate H77 …. The assay can be described thus: competition ELISA on H77 E1E2; competitor m37 (Fab N1).
For assay [8] the target is unchanged. The assay can be described thus: competition ELISA on H77 E1E2; competitor m42 (Fab P1).
Assay [9] deals with T1, vaccinia-expressed E1E2 complex, …. The assay can be described thus: competition ELISA on HCV-1 E1E2; competitor m26 (AP33).
Assay [10] shares this target. The assay can be described thus: competition ELISA on HCV-1 E1E2; competitor m31 (11/20).
Assay [11] has the same target. The assay can be described thus: competition ELISA on HCV-1 E1E2; competitor m33 (9/75).
Assay [12] shares this target. The assay can be described thus: competition ELISA on HCV-1 E1E2; competitor m35 (ALP98).
For assay [13] the target is unchanged. The assay can be described thus: competition ELISA on HCV-1 E1E2; competitor m24 (7/59).
Assay [14] has the same target. The assay can be described thus: competition ELISA on HCV-1 E1E2; competitor m36 (A4).
The target is the same in assay [15]. The assay can be described thus: competition ELISA on HCV-1 E1E2; competitor m23 (H53).
Assay [16] has the same target. The assay can be described thus: competition ELISA on HCV-1 E1E2; competitor m4 (AR3A).
For assay [17] the target is unchanged. The assay can be described thus: competition ELISA on HCV-1 E1E2; competitor m29 (2/69A).
Assay [18] shares this target. The assay can be described thus: competition ELISA on HCV-1 E1E2; competitor m34 (6/53).
Assay [19] shares this target. The assay can be described thus: competition ELISA on HCV-1 E1E2; competitor m22 (CBH-7).
Assay [20] shares this target. The assay can be described thus: competition ELISA on HCV-1 E1E2; competitor m2 (AR1B).
Assay [21] shares this target. The assay can be described thus: competition ELISA on HCV-1 E1E2; competitor m25 (9/27).
The target of assay [22] is VSV (control pseudotype virus envelope). The assay can be described thus: cell-based or functional assay.

B1: MAb AR1B (antibody, V domains shown)
VH: LESGGGLVQPGGSLRLSCEASGYYFSSFAMSWVRQTPGKGLEWVSSIAGGTLGRTSYRDSVKGRFTISRDNSKNTVFLHMNNLRPEDTAVYYCAKDPLLFAGGPNWFDHWGQGTLVTVSS
VL: not shown
notes: also called IgG1 of Fab D1
Turning to B1, the “% residual binding” value in assay [1] was determined as 89%; in assay [2], 89%; in assay [3] it was 91%; in assay [4], 95%; in assay [5], 95%; in assay [6], 84%. For the same molecule, the “% residual binding” value in [7] came to 95%; in assay [8], 97%; in assay [9] it was 69%; in [10] it was 79%; in [11], 38%; in assay [12] it was 92%. For the same molecule, the “% residual binding” value in assay [13] was determined as 77%; in assay [14] it was 103%; in assay [15], 12%; in assay [16], 76%; in [17], 85%; in assay [18] it was 92%. Also, the “% residual binding” value in assay [19] is 20%; in [20] it was 6%; in assay [21], 70%. In addition, in assay [22], the “Neutralizing activity (IC50) on control pseudotype virus” value (from here on “Neutralizing activity (IC50)”) was greater than 50 mg/L.

B2: MAb AR1A (antibody, V domains shown)
VH: LEQSGAEVKKPGSSVKVSCRASGSPYSSYTITWVRQAPGQGLEWMGGIILMTGKANYAQKFQGRVTITADRATATAYMEMSSLTSDDTAIYYCARDPYVYAGDDVRSLSRWGQGTPVIVSS
VL: not shown
notes: also called IgG1 of Fab B2
Turning to B2, the “% residual binding” value turned out to be 54% in assay [1]; 100% in assay [2]; 86% in assay [3]; 76% in [4]; 85% in assay [5]; 54% in assay [6]. Also, the “% residual binding” value in assay [7] stood at 83%; in assay [8] it was 86%; in assay [9], 102%; in assay [10], 84%; in assay [11], 24%; in assay [12], 92%. The “% residual binding” value in assay [13] was determined as 70%; in assay [14] it was 97%; in assay [15] it was 20%; in assay [16], 44%; in assay [17] it was 86%; in assay [18] it was 89%. In addition, the “% residual binding” value in assay [19] stood at 16%; in assay [20] it was 15%; in assay [21], 74%. Besides, the “Neutralizing activity (IC50)” value in [22] is greater than 50 mg/L.

B3: MAb AR3D (antibody, V domains shown)
VH: LEQSGAEVKKPGSSVKVSCKASGDTFRSYVITWARQAPGQGLEWMGAIIPFFGTTNLAQKFQGRVTITADESTKTVYMDLSSLRSDDTAVYYCAKAGDLSVGGVLAGGVPHLRHFDPWGQGTLVTVSS
VL: ELTQSPGTLSLSPGERATLSCRAGQTVASNSLAWYQHKPGQAPRLLIYGASIRASGIPDRFSGSGSGTDFTLTISRLEPEDFAVYYCQQYGLSSTFGQGTRLEIKR
notes: also called IgG1 of Fab L4
As for B3, the “% residual binding” value in [1] amounted to 18%; in assay [2] it was 75%; in assay [3] it was 94%; in assay [4], 83%; in assay [5] it was 145%; in [6] it was 14%. Besides, the “% residual binding” value is 131% in assay [7]; 145% in [8]; 27% in assay [9]; 47% in assay [10]; 53% in [11]; 97% in [12]. Besides, the “% residual binding” value was 90% in assay [14]; 74% in assay [15]; 13% in assay [16]; 56% in assay [17]; 103% in assay [18]; 33% in assay [19]. For the same molecule, the “% residual binding” value in assay [20] came out at 92%; in assay [21] it was 49%. Moreover, the “Neutralizing activity (IC50)” value in [22] is greater than 50 mg/L.

B4: MAb AR2A (antibody, V domains shown)
VH: LEQSGAEMKKPGASLKVSCKTSGYTFDDYGVTWVRQAPGQGLEWMGWISAYSGNTFYARKFQGRVTMTTDPSTRTAYMELRSLRSDDTAVYFCARDRGLAINGVVFPYFGLDVWGQGTTVTVSS
VL: ELTQSPVSLPVTPGEPASISCRSSQSLLHSNGNHYLDWYLQKPGQSPQLLMYLGSNRASGVPDRFSGSGSGTDFTLKISRVEAEDVGVYYCMQGLQTPWTFGQGTKVEIKR
notes: also called IgG1 of Fab G
Regarding B4, the “% residual binding” value amounted to 91% in assay [1]; 15% in assay [2]; 95% in assay [3]; 88% in [4]; 79% in assay [5]; 75% in assay [6]. The “% residual binding” value was found to be 85% in assay [7]; 82% in [8]; 63% in assay [9]; 84% in assay [10]; 82% in [11]; 94% in [12]. Also, the “% residual binding” value in assay [13] was 99%; in [14], 92%; in assay [15] it was 107%; in assay [16], 76%; in [17], 82%; in [18] it was 92%. Also, the figures for the “% residual binding” value in assay [19], in assay [20] and in assay [21] were 17%, 57% and 67%, respectively. In assay [22], the “Neutralizing activity (IC50)” value is greater than 50 mg/L.
